Measurements published in the MegaScale stability set (Tsuboyama et al. 2023).

B1: EEHEE_rd4_0469 (parent)
chain: ITIHVNGVTYHFDNPEEAEKFAQKMAKTYQLKMEIHNGEFHME

Variants of: B1
Assay: folding stability dG (cDNA display proteolysis); higher = more stable
Details: PBS, room temperature

Folding stability dG [kcal/mol]: each site, then its substitutions
K20: S 1.15, Y 1.09, P 0.383, W 1.02, R 1.17, Q 1.17, V 1.17, T 1.19
A26: F 1.19, T 0.708, Q 0.97, G 0.919, Y 1.45, D 0.963, R 1.1, N 0.766, L 1.25, S 1.04, K 1.01, E 1.12, V 0.794, H 0.851, I 1.31, M 1.46, W 1.63, P 0.076
K27: S 1, D 1.5, Q 1.24, A 1.32, H 0.969, T 1.02, G 0.713, E 1.51, V 1.22, N 0.922, W 1.38, R 1.09, I 1.34, L 1.34, P 1.22, Y 1.27, M 1.22, F 1.25
Y29: N 1.29, P 1.7, Q 1.05, M 0.899, I 0.788, C 2.3, H 1.45, K 0.768, A 1.07, D 1.59, F 0.965, G 1.59, E 1.6, L 1.17
M25: V 0.732, S 0.059, C 1.66, I 0.968, N 0.081, Y 0.664, R 0.041, K -0.083, H 0.288, P -0.979, L 1.12, E 0.109, D -0.066, G -0.244, F 0.692, T 0.301, W 1.07, Q 0.418, A 0.464
A22: I 1.46, E 0.335, Q 0.662, F 0.747, Y 1.01, V 1.4, C 1.76, T 0.747, H 0.587, W 0.941, G 0.3, K 0.843, R 1.06, M 1.19, N 0.367, D -0.261, S 0.704, L 0.879
T28: V 1.22, K 1.69, R 1.65, Q 1.51, H 1.45, Y 1.91, A 1.26, E 2, L 1.97, I 1.6, G 0.636, M 1.65, P 0.094, D 1.87, W 1.95, S 0.87, N 1.24, F 1.67
F21: Y 0.564, Q -0.188, E -0.052, M 0.206, R -0.383, D -0.653, C 1.38, L 0.173, W 1.2, S -0.647, G -0.582, V 0.092, I 0.089, K -0.758, H 0.061, T -0.122, A 0.133, N -0.383
K24: S 0.939, D 1.09, H 1.51, Y 2.27, E 1.39, F 1.99, G 0.646, T 1.1, L 1.48, W 2.29, R 1.31, N 0.976, V 1.29, M 1.41, I 1.41, P -0.407, A 1.11, Q 1.2
Q23: S 1.05, M 1.29, T 1.19, V 1.26, Y 1.28, H 0.988, E 1.14, N 0.986, L 1.25, C 2.52, K 1.07, A 1.24, W 1.36, G 0.566, D 0.989, I 1.27, F 1.19, R 1.35
